The values that follow come from patent publication US20050255554A1.

The target in the experiment is α-amylase. Kind of experiment: cell-based or functional assay.

In turn, “thioredoxin/90-mer ELP/tendamistat fusion protein (from UniProt P01092 31-104)” registered a α-amylase inhibition activity (colorimetric α-amylase inhibition assay) of 2 fold.
